Experimental data as given in US6344436B1, “Lipophilic peptides for macromolecule delivery” (Baylor College of Medicine, priority 1996, dated 2002).
Ends that are not written are not given here. * marks the point of attachment. N,N‑distearylglycyl = CCCCCCCCCCCCCCCCCCN(CCCCCCCCCCCCCCCCCC)CC(=O)*

Tests used:
[1] = Particle size of peptide-macromolecule complex after enmeshment and condensation; assay type: physicochemical; details: for particle size: peptide added to DNA in the absence of condensing peptide, CHAPS micelles diluted below cmc
Description: Subsequently, the nucleic acid becomes coated with lipophilic peptide and enmeshed; forming a condensed nucleic acid/lipophilic peptide complex while CHAPS detergent monomers can be dialyzed out of the resulting mixture (FIGURE EIGHT).
The degree of condensation of the nucleic acid given the treatment of example two is shown as FIGURE NINE. When distearyl-glycyl-apoE-3^129-169 was added to DNA previously condensed with K8, the particle size increased only ˜20%. The addition of JTS-1 increased the particle size another 40%. By contrast, addition of distearyl-glycyl-apoE-3^129-169 to DNA in the absence of condensing peptide gave a smaller particle, about 60 nm. Condensation and enmeshment with the distearyl-glycyl-apoE-3^129-169Q142, the mutant peptide, also gave a small, 60 nm monodisperse particle population. When distearyl-glycyl-apoE-3^129-169 in 10 mM CHAPS was diluted without DNA being present, the resulting vesicles were ˜450 nm in diameter. […] Free DNA in the control remained at the top of the gradient, while the enmeshed-condensed complex was found at the bottom of the centrifugation tube.

[2] = test system: 293 epithelial cells; test: Transfection of 293 epithelial cells grown in lovastatin to up-regulate LDL receptors; assay type: cell-based; details: for transfection ability of peptide-macromolecule complexes (FIG. 10): comparison between complexes
Description: The ability of the formulations of example three to transfect cells was tested in 293 epithelial cells grown in 1 μg mL^−1 lovastatin overnight to up-regulate LDL receptors. […] As expected from the reduced binding of the mutant peptide to the LDL receptor, expression by mutant peptide complexes was about 5% of that observed with the wild-type apoE peptide complexes. We conclude that the diacyl-peptide functions as a condensing agent, an encapsulation agent, a targeting agent and a lytic agent. Apart from the well defined receptor ligand domain, the sequence regions that contain the other functions remain to be elucidated.

[3] = target: T1, LDL receptor (Homo sapiens, UniProt P01130); test: Cytosis and degradation of labeled LDL complexed with lipophilic peptide (FIG. 4); assay type: cell-based
T1 construct: endogenous in cells
T1 sequence (P01130 22-860, species assumed): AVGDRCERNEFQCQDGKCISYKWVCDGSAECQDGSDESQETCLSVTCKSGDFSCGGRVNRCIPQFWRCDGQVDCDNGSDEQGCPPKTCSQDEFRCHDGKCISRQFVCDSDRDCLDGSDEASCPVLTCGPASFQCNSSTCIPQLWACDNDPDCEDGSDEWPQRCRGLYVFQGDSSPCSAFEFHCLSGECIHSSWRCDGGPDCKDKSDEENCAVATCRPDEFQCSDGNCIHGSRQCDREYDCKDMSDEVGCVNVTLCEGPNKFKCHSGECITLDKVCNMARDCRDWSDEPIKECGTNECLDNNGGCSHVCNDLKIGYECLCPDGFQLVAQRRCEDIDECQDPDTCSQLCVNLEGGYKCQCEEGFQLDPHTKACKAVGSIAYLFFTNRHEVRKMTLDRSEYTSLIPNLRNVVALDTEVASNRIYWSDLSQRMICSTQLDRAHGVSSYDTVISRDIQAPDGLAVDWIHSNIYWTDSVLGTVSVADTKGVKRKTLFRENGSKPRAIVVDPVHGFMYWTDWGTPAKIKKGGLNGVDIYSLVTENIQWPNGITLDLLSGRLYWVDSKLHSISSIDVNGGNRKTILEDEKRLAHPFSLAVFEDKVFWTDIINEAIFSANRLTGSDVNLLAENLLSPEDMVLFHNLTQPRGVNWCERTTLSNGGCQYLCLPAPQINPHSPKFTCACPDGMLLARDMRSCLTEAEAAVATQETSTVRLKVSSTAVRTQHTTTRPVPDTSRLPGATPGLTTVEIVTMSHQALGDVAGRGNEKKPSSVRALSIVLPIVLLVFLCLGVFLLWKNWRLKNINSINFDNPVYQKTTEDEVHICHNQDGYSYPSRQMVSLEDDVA

Row | Substance | further increase in particle size ([1]; JTS-1 added to K8-condensed DNA plus distearyl-glycyl-apoE-3^129-169) | necessity of component for efficient gene transfer ([2]; 293 epithelial cells (FIGURE TENc)) | comparative size of peptide complexes ([1]; diameter after condensation of DNA (FIG. 9)) | particle size [1] | increase in particle size ([1]; peptide added to DNA previously condensed with K8) | diameter of resulting vesicles ([1]; peptide in 10 mM CHAPS diluted without DNA being present) | cytosis and degradation of labeled LDL complexed with peptide (FIG. 4) [3] | transfection ability of peptide-macromolecule complexes (FIG. 10) [2] | expression relative to wild-type apoE peptide complexes ([2]; 293 epithelial cells, 1 μg mL^−1 lovastatin overnight)
1 | GLFEALLELLESLWELLLEA [JTS-1, reference compound] | 40% | Neither the galtoselated K8 or JTS-1 were necessary |  |  |  |  |  |  | 
2 | distearyl-glycyl-apoE-3^129-169 ({N,N‑distearylglycyl}-STEELRVRLASHLRKLRKRLLRDADDLQKRLAVYQAGAREG) |  |  | greatest reduction in diameter | about 60 nm | ~20% | ~450 nm | cytosed and subsequently degraded | No significant transfection difference | 
3 | distearyl-glycyl-apoE-3^129-169(Q142) |  |  |  | 60 nm |  |  | significantly less cytosis and degradation | significantly less transfection | about 5%
